This passage reports target binding fraction results from patent US20250339570A1.

For this experiment, the target named is CD46 (UniProt P15529). As to the kind of experiment: magnetic bead radioligand binding assay; CD46 on Ni-NTA beads, 10 ng radioimmunoconjugate, bead activity/standard.

The substance 225Ac-Macropa-PEG0-YS5 (antibody) came in with a target binding fraction greater than 75%.
In turn, 225Ac-Macropa-PEG4-YS5 (antibody) had a target binding fraction greater than 75%.
To 225Ac-Macropa-PEG8-YS5 (antibody) belongs greater than 75%.
